In one series the target is ZFP 20 QSNR3-QSHR2-RSNR (synthetic). As to the kind of experiment: cell_activity; HEK293 luciferase repression. To be noted: tags: HA tag and NLS (P3 vector). How it is done:
(§1) The in vivo activity assay for a particular three-finger protein was carried out as follows. HEK 293 cells were transfected with four plasmids: 14 ng of a plasmid expressing the particular three-finger protein; 14 ng of the reporter plasmid described above; 70 ng of a plasmid that expresses GAL4-VP 16; and 1.4 ng of a plasmid that expresses Renillar luciferase. The GAL4-VP 16 activates transcription of the minimal synthetic promoter in the reporter so that the repression effected by a particular three-finger protein could be clearly detected and compared to other three-finger proteins. The plasmid expressing Renillar luciferase provides a control of transfection efficiency.
(§2) Lipofectamine (Gibco-BRL) was used for the transfection procedures. Cells were transfected at 30-50% confluency in wells of a 96 well plate. The cells were incubated for two days prior to harvesting for the luciferase assay. Then luciferase activities were measured using the Dual-Luciferase™ Reporter Assay System (Promega). The observed firefly luciferase activity was normalized using the observed level of Renilla luciferase. The extent of repression or “fold-repression” was calculated by dividing a value for normalized reporter expression in the absence of a zinc finger protein by a value for normalized reporter expression in the presence of the zinc finger protein.
(§3) A total of 153 three-finger chimeric proteins were constructed from both the “zinc finger protein-first” and the “target site-first” approaches. These proteins were tested using the transient cotransfection assay described in Example 68.

The next series deals with ZFP 6 RSHR-RDER1-RDHT (synthetic). As to the kind of experiment: cell_activity; HEK293 luciferase repression. To be noted: tags: HA tag and NLS (P3 vector). How it is done: as §1, §2, §3
Sequence of ZFP 6 RSHR-RDER1-RDHT (synthetic) (chain, as listed by the source): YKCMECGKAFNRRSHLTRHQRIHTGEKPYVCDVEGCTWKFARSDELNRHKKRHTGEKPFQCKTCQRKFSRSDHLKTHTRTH
The next series deals with ZFP 4 RSHR-RDER1-RDER1 (synthetic). The experiment in a line: cell_activity; HEK293 luciferase repression. To be noted: tags: HA tag and NLS (P3 vector). How it is done: as §1, §2, §3
Sequence of ZFP 4 RSHR-RDER1-RDER1 (synthetic) (chain, as listed by the source): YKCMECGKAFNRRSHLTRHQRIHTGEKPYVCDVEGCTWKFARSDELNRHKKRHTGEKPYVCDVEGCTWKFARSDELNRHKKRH
The next series concerns the target ZFP 28 VSSR-QSNR3-RDER1 (synthetic). As to the kind of experiment: cell_activity; HEK293 luciferase repression. The settings on record: tags: HA tag and NLS (P3 vector). How it is done:
as §1, §2, §3

Another series addresses ZFP 13 QSHR2-RDER1-RSNR (synthetic). As to the kind of experiment: cell_activity; HEK293 luciferase repression. The settings on record: tags: HA tag and NLS (P3 vector). How it is done:
as §1, §2, §3

A further series addresses ZFP 2 CSNR1-RSHR-RDHT (synthetic). The experiment in a line: cell_activity; HEK293 luciferase repression. To be noted: tags: HA tag and NLS (P3 vector). How it is done: as §1, §2, §3
A further series addresses ZFP 12 QSSR1-QSNV2-RSNR (synthetic). As to the kind of experiment: cell_activity; HEK293 luciferase repression. To be noted: tags: HA tag and NLS (P3 vector). How it is done: as §1, §2, §3
Another series has as its target ZFP 23 RDHT-RSNR-QSNR3 (synthetic). The experiment in a line: cell_activity; HEK293 luciferase repression. To be noted: tags: HA tag and NLS (P3 vector). How it is done: as §1, §2, §3
The next series concerns the target ZFP 19 RDER1-VSSR-QSHT (synthetic). The experiment in a line: cell_activity; HEK293 luciferase repression. The settings on record: tags: HA tag and NLS (P3 vector). How it is done: as §1, §2, §3
In series [1] the target is T1, Zif268 zinc finger protein (three fingers) (UniProt P08046 SEQ:1-89). As to the kind of experiment: EMSA; Zn2+, Mg2+, pH 7.7, RT; yeast growth ++; 5.9-fold repression (Table 8). A general note: In EMSA bound probe runs differently from free probe, usually more slowly.
A further series concerns the target ZFP 7 RDHT-QSNV2-RSHR (synthetic). The experiment in a line: cell_activity; HEK293 luciferase repression. To be noted: tags: HA tag and NLS (P3 vector). How it is done: as §1, §2, §3
Another series deals with ZFP 30 RSHR-RSHR-QSHR2 (synthetic). As to the kind of experiment: cell_activity; HEK293 luciferase repression. The settings on record: tags: HA tag and NLS (P3 vector). How it is done:
as §1, §2, §3

A further series concerns the target ZFP 3 RDHT-QSNV2-QSSR1 (synthetic). The experiment in a line: cell_activity; HEK293 luciferase repression. The settings on record: tags: HA tag and NLS (P3 vector). How it is done: as §1, §2, §3
In another series the target is ZFP 1 RSNR-RDHT-RSNR (synthetic). The experiment in a line: cell_activity; HEK293 luciferase repression of GAL4-VP16 activated reporter. To be noted: tags: HA tag and NLS (P3 vector). How it is done: as §1
Sequence of ZFP 1 RSNR-RDHT-RSNR (synthetic) (chain, as listed by the source): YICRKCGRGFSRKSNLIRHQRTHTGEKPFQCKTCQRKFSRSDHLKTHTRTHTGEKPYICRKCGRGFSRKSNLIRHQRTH
Lipofectamine (Gibco-BRL) was used for the transfection procedures. Cells were transfected at 30-50% confluency in wells of a 96 well plate. The cells were incubated for two days prior to harvesting for the luciferase assay. Then luciferase activities were measured using the Dual-Luciferase™ Reporter Assay System (Promega). The observed firefly luciferase activity was normalized using the observed level of Renilla luciferase. The extent of repression or “fold-repression” was calculated by dividing a value for normalized reporter expression in the absence of a zinc finger protein by a value for normalized reporter expression in the presence of the zinc finger protein. […]

Another series deals with ZFP 18 RDER1-QSSR1-QSHT (synthetic). As to the kind of experiment: cell_activity; HEK293 luciferase repression. The settings on record: tags: HA tag and NLS (P3 vector). How it is done:
as §1, §2, §3

The target in series [2] is T1, Zif268 zinc finger protein (three …). The experiment in a line: EMSA; Zn2+, Mg2+, pH 7.7, RT; no yeast growth; 1.5-fold repression (Table 8).

Sequence of ZFP 28 VSSR-QSNR3-RDER1 (synthetic) (chain, as listed by the source): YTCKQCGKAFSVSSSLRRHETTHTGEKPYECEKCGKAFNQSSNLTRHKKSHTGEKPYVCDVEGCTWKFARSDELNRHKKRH
Sequence of ZFP 19 RDER1-VSSR-QSHT (synthetic) (chain, as listed by the source): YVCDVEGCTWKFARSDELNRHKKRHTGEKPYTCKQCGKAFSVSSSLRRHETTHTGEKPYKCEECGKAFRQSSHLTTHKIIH
Sequence of ZFP 13 QSHR2-RDER1-RSNR (synthetic) (chain, as listed by the source): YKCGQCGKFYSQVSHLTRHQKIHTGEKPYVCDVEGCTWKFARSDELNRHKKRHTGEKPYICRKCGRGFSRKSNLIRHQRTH
Sequence of ZFP 23 RDHT-RSNR-QSNR3 (synthetic) (chain, as listed by the source): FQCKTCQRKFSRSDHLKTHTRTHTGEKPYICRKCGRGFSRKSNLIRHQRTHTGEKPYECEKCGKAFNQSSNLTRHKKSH
Sequence of ZFP 12 QSSR1-QSNV2-RSNR (synthetic) (chain, as listed by the source): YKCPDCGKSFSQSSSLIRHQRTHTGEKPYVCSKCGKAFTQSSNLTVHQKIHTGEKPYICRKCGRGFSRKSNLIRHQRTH
Sequence of ZFP 3 RDHT-QSNV2-QSSR1 (synthetic) (chain, as listed by the source): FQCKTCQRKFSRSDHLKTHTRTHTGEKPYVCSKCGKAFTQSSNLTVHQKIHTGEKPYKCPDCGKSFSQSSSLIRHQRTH
Sequence of ZFP 18 RDER1-QSSR1-QSHT (synthetic) (chain, as listed by the source): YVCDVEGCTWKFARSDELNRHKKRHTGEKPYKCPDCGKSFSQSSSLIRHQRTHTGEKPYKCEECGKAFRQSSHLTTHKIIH
Sequence of ZFP 2 CSNR1-RSHR-RDHT (synthetic) (chain, as listed by the source): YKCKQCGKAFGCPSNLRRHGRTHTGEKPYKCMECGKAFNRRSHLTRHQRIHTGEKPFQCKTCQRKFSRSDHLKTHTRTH
Sequence of ZFP 7 RDHT-QSNV2-RSHR (synthetic) (chain, as listed by the source): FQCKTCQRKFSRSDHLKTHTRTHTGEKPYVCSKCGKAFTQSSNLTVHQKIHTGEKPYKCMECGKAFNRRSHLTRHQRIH
Sequence of ZFP 30 RSHR-RSHR-QSHR2 (synthetic) (chain, as listed by the source): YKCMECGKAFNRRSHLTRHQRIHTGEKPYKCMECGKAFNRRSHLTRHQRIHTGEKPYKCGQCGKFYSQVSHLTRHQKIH
Sequence of ZFP 20 QSNR3-QSHR2-RSNR (synthetic) (chain, as listed by the source): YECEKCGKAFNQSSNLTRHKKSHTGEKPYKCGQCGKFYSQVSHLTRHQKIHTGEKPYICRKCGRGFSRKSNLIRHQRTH

B1: target 20 (dsDNA)
DNA 1: GAGGGAGAAG
DNA 2: CTTCTCCCTC
In the case of B1, the activity with ZFP 20 QSNR3-QSHR2-RSNR was 2.1 fold repression.

B2: target 6 (dsDNA)
DNA 1: AGGGCGGGGC
DNA 2: GCCCCGCCCT
In the case of B2, the activity with ZFP 6 RSHR-RDER1-RDHT came out at 3.6 fold repression.

B3: target 4 (dsDNA)
DNA 1: GCGGCGGGGC
DNA 2: GCCCCGCCGC
B3 yielded an activity with ZFP 4 RSHR-RDER1-RDER1 of 3.8 fold repression.

B4: target 28 (dsDNA)
DNA 1: GCGGAAGTTC
DNA 2: GAACTTCCGC
In the series with ZFP 28 VSSR-QSNR3-RDER1, B4 gave an activity of 2 fold repression.

B5: target 13 (dsDNA)
DNA 1: GAGGTGGGAG
DNA 2: CTCCCACCTC
Regarding B5, the activity with ZFP 13 QSHR2-RDER1-RSNR stood at 2.8 fold repression.

B6: target 2 (dsDNA)
DNA 1: TGGGGGGACA
DNA 2: TGTCCCCCCA
Take B6: the activity with ZFP 2 CSNR1-RSHR-RDHT stood at 4.5 fold repression.

B7: target 12 (dsDNA)
DNA 1: GAGCAAGTAG
DNA 2: CTACTTGCTC
The molecule B7 showed an activity with ZFP 12 QSSR1-QSNV2-RSNR of 2.9 fold repression.

B8: target 23 (dsDNA)
DNA 1: GAAGAGAGGT
DNA 2: ACCTCTCTTC
Turning to B8, the activity in the series with ZFP 23 RDHT-RSNR-QSNR3 worked out at 2.1 fold repression.

B9: target 19 (dsDNA)
DNA 1: CGAGTTGCG
DNA 2: CGCAACTCG
Take B9: the activity with ZFP 19 RDER1-VSSR-QSHT was found to be 2.1 fold repression.

B10: GAGT probe (dsDNA)
DNA 1: CCGGGTCGGGAGTGGGCGGTACCG
DNA 2: TCGACGGTACCGCCCACTCCCGAC
In turn, B10 came in with a Kd in [1] of 0.17 nM. That is a sub-nanomolar value.

B11: target 7 (dsDNA)
DNA 1: GGGAAACGGG
DNA 2: CCCGTTTCCC
In the case of B11, the activity with ZFP 7 RDHT-QSNV2-RSHR worked out at 3.6 fold repression.

B12: target 30 (dsDNA)
DNA 1: GGAGGGGGGC
DNA 2: GCCCCCCTCC
For the molecule B12, the activity with ZFP 30 RSHR-RSHR-QSHR2 worked out at 2 fold repression.

B13: target 3 (dsDNA)
DNA 1: GCACAATGG
DNA 2: CCATTGTGC
Consider B13, for which the activity with ZFP 3 RDHT-QSNV2-QSSR1 worked out at 4 fold repression.

B14: target 1 (dsDNA)
DNA 1: GAGAGGGAGC
DNA 2: GCTCCCTCTC
Consider B14, for which, in the series with ZFP 1 RSNR-RDHT-RSNR, the activity worked out at 8.1 fold repression.

B15: target 18 (dsDNA)
DNA 1: CGAGCAGCG
DNA 2: CGCTGCTCG
For the molecule B15, the activity with ZFP 18 RDER1-QSSR1-QSHT turned out to be 2.2 fold repression.

B16: GCTT probe (dsDNA)
DNA 1: CCGGGTCGTGCTTGGGCGGTACCG
DNA 2: TCGACGGTACCGCCCAAGCACGAC
Take B16: in series [2], the Kd was determined as 2.1 nM. This counts as single-digit nanomolar.

By Kd is commonly meant the equilibrium constant for the complex coming apart.

Values taken from US20030165997, “Zinc finger domain libraries” (published 2003).
